# Laboratory results published in the supplement of paper PMC11316812.
# ± gives the standard deviation of the averaged measurements.
# Experiments:
# MCF7 = experiment: percentage of EdU-negative (G0-arrested) nuclei per well, 72 h; higher = more G0 arrest; conditions: reference: sequence is the full UniProt precursor, the tested protein was the secreted form or ectodomain
# hTERT-HMEC = experiment: as above; conditions: reference: sequence is the full UniProt precursor, the tested protein was the secreted form or ectodomain
# [1] = protein concentration 0.00975 µM
# [2] = protein concentration 0.0975 µM
# [3] = protein concentration 0.0225 µM
# [4] = protein concentration 0.03125 µM
# [5] = protein concentration 0.3125 µM
# [6] = protein concentration 0.00828571 µM
# [7] = protein concentration 0.0828571 µM
# [8] = protein concentration 0.00525 µM
# [9] = protein concentration 0.0525 µM
# 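Also: secreted proteins added to cultured cells, EdU pulse at the end, nuclei found by Hoechst imaging, EdU status from nuclear versus surrounding ring intensity ratio, PBS as neutral control.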
sequence,measurement,setting,value
MPGPRRPAGSRLRLLLLLLLPPLLLLLRGSHAGNLTVAVVLPLANTSYPWSWARVGPAVELALAQVKARPDLLPGWTVRTVLGSSENALGVCSDTAAPLAAVDLKWEHNPAVFLGPGCVYAAAPVGRFTAHWRVPLLTAGAPALGFGVKDEYALTTRAGPSYAKLGDFVAALHRRLGWERQALMLYAYRPGDEEHCFFLVEGLFMRVRDRLNITVDHLEFAEDDLSHYTRLLRTMPRKGRVIYICSSPDAFRTLMLLALEAGLCGEDYVFFHLDIFGQSLQGGQGPAPRRPWERGDGQDVSARQAFQAAKIITYKDPDNPEYLEFLKQLKHLAYEQFNFTMEDGLVNTIPASFHDGLLLYIQAVTETLAHGGTVTDGENITQRMWNRSFQGVTGYLKIDSSGDRETDFSLWDMDPENGAFRVVLNYNGTSQELVAVSGRKLNWPLGYPPPDIPKCGFDNEDPACNQDHLSTLEVLALVGSLSLLGILIVSFFIYRKMQLEKELASELWRVRWEDVEPSSLERHLRSAGSRLTLSGRGSNYGSLLTTEGQFQVFAKTAYYKGNLVAVKRVNRKRIELTRKVLFELKHMRDVQNEHLTRFVGACTDPPNICILTEYCPRGSLQDILENESITLDWMFRYSLTNDIVKGMLFLHNGAICSHGNLKSSNCVVDGRFVLKITDYGLESFRDLDPEQGHTVYAKKLWTAPELLRMASPPVRGSQAGDVYSFGIILQEIALRSGVFHVEGLDLSPKEIIERVTRGEQPPFRPSLALQSHLEELGLLMQRCWAEDPQERPPFQQIRLTLRKFNRENSSNILDNLLSRMEQYANNLEELVEERTQAYLEEKRKAEALLYQILPHSVAEQLKRGETVQAEAFDSVTIYFSDIVGFTALSAESTPMQVVTLLNDLYTCFDAVIDNFDVYKVETIGDAYMVVSGLPVRNGRLHACEVARMALALLDAVRSFRIRHRPQEQLRLRIGIHTGPVCAGVVGLKMPRYCLFGDTVNTASRMESNGEALKIHLSSETKAVLEEFGGFELELRGDVEMKGKGKVRTYWLLGERGSSTRG,percentage of EdU-negative,MCF7; [1],23.4 ± 0.38%
same,percentage of EdU-negative,MCF7; [2],29.51 ± 0.041%
same,percentage of EdU-negative,hTERT-HMEC; [1],4.49 ± 0.51%
same,percentage of EdU-negative,hTERT-HMEC; [2],7.62 ± 0.42%
MDWSFFRVVAMLFIFLVVVEVNSEFRIQVRDYNTKNGTIKWHSIRRQKREWIKFAAACREGEDNSKRNPIAKIHSDCAANQQVTYRISGVGIDQPPYGIFVINQKTGEINITSIVDREVTPFFIIYCRALNSMGQDLERPLELRVRVLDINDNPPVFSMATFAGQIEENSNANTLVMILNATDADEPNNLNSKIAFKIIRQEPSDSPMFIINRNTGEIRTMNNFLDREQYGQYALAVRGSDRDGGADGMSAECECNIKILDVNDNIPYMEQSSYTIEIQENTLNSNLLEIRVIDLDEEFSANWMAVIFFISGNEGNWFEIEMNERTNVGILKVVKPLDYEAMQSLQLSIGVRNKAEFHHSIMSQYKLKASAISVTVLNVIEGPVFRPGSKTYVVTGNMGSNDKVGDFVATDLDTGRPSTTVRYVMGNNPADLLAVDSRTGKLTLKNKVTKEQYNMLGGKYQGTILSIDDNLQRTCTGTININIQSFGNDDRTNTEPNTKITTNTGRQESTSSTNYDTSTTSTDSSQVYSSEPGNGAKDLLSDNVHFGPAGIGLLIMGFLVLGLVPFLMICCDCGGAPRSAAGFEPVPECSDGAIHSWAVEGPQPEPRDITTVIPQIPPDNANIIECIDNSGVYTNEYGGREMQDLGGGERMTGFELTEGVKTSGMPEICQEYSGTLRRNSMRECREGGLNMNFMESYFCQKAYAYADEDEGRPSNDCLLIYDIEGVGSPAGSVGCCSFIGEDLDDSFLDTLGPKFKKLADISLGKESYPDLDPSWPPQSTEPVCLPQETEPVVSGHPPISPHFGTTTVISESTYPSGPGVLHPKPILDPLGYGNVTVTESYTTSDTLKPSVHVHDNRPASNVVVTERVVGPISGADLHGMLEMPDLRDGSNVIVTERVIAPSSSLPTSLTIHHPRESSNVVVTERVIQPTSGMIGSLSMHPELANAHNVIVTERVVSGAGVTGISGTTGISGGIGSSGLVGTSMGAGSGALSGAGISGGGIGLSSLGGTASIGHMRSSSDHHFNQTIGSASPSTARSRITKYSTVQYSK,percentage of EdU-negative,MCF7; protein concentration 0.014 µM,25.17 ± 0.14%
same,percentage of EdU-negative,MCF7; protein concentration 0.14 µM,28.1 ± 0.79%
same,percentage of EdU-negative,hTERT-HMEC; protein concentration 0.014 µM,5.37 ± 1.1%
same,percentage of EdU-negative,hTERT-HMEC; protein concentration 0.14 µM,5.1 ± 0.58%
MLALLAASVALAVAAGAQDSPAPGSRFVCTALPPEAVHAGCPLPAMPMQGGAQSPEEELRAAVLQLRETVVQQKETLGAQREAIRELTGKLARCEGLAGGKARGAGATGKDTMGDLPRDPGHVVEQLSRSLQTLKDRLESLEHQLRANVSNAGLPGDFREVLQQRLGELERQLLRKVAELEDEKSLLHNETSAHRQKTESTLNALLQRVTELERGNSAFKSPDAFKVSLPLRTNYLYGKIKKTLPELYAFTICLWLRSSASPGIGTPFSYAVPGQANEIVLIEWGNNPIELLINDKVAQLPLFVSDGKWHHICVTWTTRDGMWEAFQDGEKLGTGENLAPWHPIKPGGVLILGQEQDTVGGRFDATQAFVGELSQFNIWDRVLRAQEIVNIANCSTNMPGNIIPWVDNNVDVFGGASKWPVETCEERLLDL,percentage of EdU-negative,MCF7; [3],24.1 ± 0.47%
same,percentage of EdU-negative,MCF7; protein concentration 0.225 µM,24.8 ± 0.78%
same,percentage of EdU-negative,hTERT-HMEC; [3],5.346 ± 0.033%
same,percentage of EdU-negative,hTERT-HMEC; protein concentration 0.225 µM,6.28 ± 1.3%
MAFLPSWVCVLVGSFSASLAGTSNLSETEPPLWKESPGQLSDYRVENSMYIINPWVYLERMGMYKIILNQTARYFAKFAPDNEQNILWGLPLQYGWQYRTGRLADPTRRTNCGYESGDHMCISVDSWWADLNYFLSSLPFLAAVDSGVMGISSDQVRLLPPPKNERKFCYDVSSCRSSFPETMNKWNTFYQYLQSPFSKFDDLLKYLWAAHTSTLADNIKSFEDRYDYYSKAEAHFERSWVLAVDHLAAVLFPTTLIRSYKFQKGMPPRILLNTDVAPFISDFTAFQNVVLVLLNMLDNVDKSIGYLCTEKSNVYRDHSESSSRSYGNNS [Q6P5S2],percentage of EdU-negative,MCF7; [3],25.7 ± 0.86%
same,percentage of EdU-negative,MCF7; protein concentration 0.225 µM,26.6 ± 0.54%
same,percentage of EdU-negative,hTERT-HMEC; [3],4.92 ± 0.16%
same,percentage of EdU-negative,hTERT-HMEC; protein concentration 0.225 µM,5.82 ± 0.65%
MWLGRRALCALVLLLACASLGLLYASTRDAPGLRLPLAPWAPPQSPRRPELPDLAPEPRYAHIPVRIKEQVVGLLAWNNCSCESSGGGLPLPFQKQVRAIDLTKAFDPAELRAASATREQEFQAFLSRSQSPADQLLIAPANSPLQYPLQGVEVQPLRSILVPGLSLQAASGQEVYQVNLTASLGTWDVAGEVTGVTLTGEGQADLTLVSPGLDQLNRQLQLVTYSSRSYQTNTADTVRFSTEGHEAAFTIRIRHPPNPRLYPPGSLPQGAQYNISALVTIATKTFLRYDRLRALITSIRRFYPTVTVVIADDSDKPERVSGPYVEHYLMPFGKGWFAGRNLAVSQVTTKYVLWVDDDFVFTARTRLERLVDVLERTPLDLVGGAVREISGFATTYRQLLSVEPGAPGLGNCLRQRRGFHHELVGFPGCVVTDGVVNFFLARTDKVREVGFDPRLSRVAHLEFFLDGLGSLRVGSCSDVVVDHASKLKLPWTSRDAGAETYARYRYPGSLDESQMAKHRLLFFKHRLQCMTSQ,percentage of EdU-negative,MCF7; [4],24.7 ± 5.6%
same,percentage of EdU-negative,MCF7; [5],27 ± 3.4%
same,percentage of EdU-negative,hTERT-HMEC; [4],5.346 ± 0.02%
same,percentage of EdU-negative,hTERT-HMEC; [5],5.55 ± 0.9%
MSLWQPLVLVLLVLGCCFAAPRQRQSTLVLFPGDLRTNLTDRQLAEEYLYRYGYTRVAEMRGESKSLGPALLLLQKQLSLPETGELDSATLKAMRTPRCGVPDLGRFQTFEGDLKWHHHNITYWIQNYSEDLPRAVIDDAFARAFALWSAVTPLTFTRVYSRDADIVIQFGVAEHGDGYPFDGKDGLLAHAFPPGPGIQGDAHFDDDELWSLGKGVVVPTRFGNADGAACHFPFIFEGRSYSACTTDGRSDGLPWCSTTANYDTDDRFGFCPSERLYTQDGNADGKPCQFPFIFQGQSYSACTTDGRSDGYRWCATTANYDRDKLFGFCPTRADSTVMGGNSAGELCVFPFTFLGKEYSTCTSEGRGDGRLWCATTSNFDSDKKWGFCPDQGYSLFLVAAHEFGHALGLDHSSVPEALMYPMYRFTEGPPLHKDDVNGIRHLYGPRPEPEPRPPTTTTPQPTAPPTVCPTGPPTVHPSERPTAGPTGPPSAGPTGPPTAGPSTATTVPLSPVDDACNVNIFDAIAEIGNQLYLFKDGKYWRFSEGRGSRPQGPFLIADKWPALPRKLDSVFEERLSKKLFFFSGRQVWVYTGASVLGPRRLDKLGLGADVAQVTGALRSGRGKMLLFSGRRLWRFDVKAQMVDPRSASEVDRMFPGVPLDTHDVFQYREKAYFCQDRFYWRVSSRSELNQVDQVGYVTYDILQCPED,percentage of EdU-negative,MCF7; [6],24.2 ± 1.4%
same,percentage of EdU-negative,MCF7; [7],24.7 ± 0.13%
same,percentage of EdU-negative,hTERT-HMEC; [6],4.71 ± 0.63%
same,percentage of EdU-negative,hTERT-HMEC; [7],6.64 ± 0.96%
MATFISVQLKKTSEVDLAKPLVKFIQQTYPSGGEEQAQYCRAAEELSKLRRAAVGRPLDKHEGALETLLRYYDQICSIEPKFPFSENQICLTFTWKDAFDKGSLFGGSVKLALASLGYEKSCVLFNCAALASQIAAEQNLDNDEGLKIAAKHYQFASGAFLHIKETVLSALSREPTVDISPDTVGTLSLIMLAQAQEVFFLKATRDKMKDAIIAKLANQAADYFGDAFKQCQYKDTLPKEVFPVLAAKHCIMQANAEYHQSILAKQQKKFGEEIARLQHAAELIKTVASRYDEYVNVKDFSDKINRALAAAKKDNDFIYHDRVPDLKDLDPIGKATLVKSTPVNVPISQKFTDLFEKMVPVSVQQSLAAYNQRKADLVNRSIAQMREATTLANGVLASLNLPAAIEDVSGDTVPQSILTKSRSVIEQGGIQTVDQLIKELPELLQRNREILDESLRLLDEEEATDNDLRAKFKERWQRTPSNELYKPLRAEGTNFRTVLDKAVQADGQVKECYQSHRDTIVLLCKPEPELNAAIPSANPAKTMQGSEVVNVLKSLLSNLDEVKKEREGLENDLKSVNFDMTSKFLTALAQDGVINEEALSVTELDRVYGGLTTKVQESLKKQEGLLKNIQVSHQEFSKMKQSNNEANLREEVLKNLATAYDNFVELVANLKEGTKFYNELTEILVRFQNKCSDIVFARKTERDELLKDLQQSIAREPSAPSIPTPAYQSSPAGGHAPTPPTPAPRTMPPTKPQPPARPPPPVLPANRAPSATAPSPVGAGTAAPAPSQTPGSAPPPQAQGPPYPTYPGYPGYCQMPMPMGYNPYAYGQYNMPYPPVYHQSPGQAPYPGPQQPSYPFPQPPQQSYYPQQ [Q8WUM4],percentage of EdU-negative,MCF7; [8],24.7 ± 1.5%
same,percentage of EdU-negative,MCF7; [9],25.1 ± 1%
same,percentage of EdU-negative,hTERT-HMEC; [8],4.68 ± 0.54%
same,percentage of EdU-negative,hTERT-HMEC; [9],4.872 ± 0.012%
